Here are results for 8 molecules from paper PMC10761869 (Nature Communications, 2024).

Assay [1] deals with Ssa1^TMR, TMR-labeled Ssa1(D430C) (yeast) (UniProt P10591). Description: FRET or BRET; 20 nM Bos1^BFL with 500 nM Ssa1^TMR, with or without 500 nM Ydj1, 5 min; excitation 485 nm; chased with cpSRP43 or a five-fold excess of unlabeled Ssa1.
Assay [2] deals with (Sgt2-C258)XL2, BMH-crosslinked Sgt2-C258 dimer (UniProt Q12118). The assay is described as follows: cross-linking; Bos1^Bpa translated with 35S-methionine in S30 lysate in the presence of Sgt2 or Sgt2-C258; complexes purified via His6 on Sgt2, treated with 1 mM BMH; UV crosslinking, SDS-PAGE, autoradiography; time courses after adding 15–20 µM CaM (1 mM Ca(OAc)2) or 0.75 µM Get3 with 2 mM ATP, with or without 0.75 µM Get4/5.

Assay [3] concerns the target His6-Sgt2 (wildtype Sgt2) (UniProt Q12118). The assay is described as above.
Assay [4] has as its target Sgt2^BFL (His6-Sgt2-LPATGG labelled with BODIPY-FL at the C-terminus). Description: FRET or BRET; 50–150 nM purified Sgt2^BFL-TA^CM complex in GET buffer chased with 14–28 µM cpSRP43; recovery of donor fluorescence (excitation 360 nm, emission 460 nm); TA dissociation.
Assay [5] shares this target. Described as above. This is another data set of the same source.
Assay [6] shares this target. Description: FRET or BRET; 50–150 nM purified Sgt2^BFL-Bos1^CM complex in GET buffer chased with 2.5–30 µM CaM or with unlabeled Sgt2; recovery of donor fluorescence; intrinsic koff by extrapolation of the CaM concentration dependence to the Y-axis.
Assay [7] addresses His6-Sgt2-G258C, not crosslinked (UniProt Q12118). Description: cross-linking; purified Sgt2-C258-TA^Bpa complex incubated with 1 mM BMH at RT, quenched with 10 mM DTT; anti-His immunoblot. For orientation: In western blotting, separated proteins are transferred to a membrane and probed.
Assay [8] shares this target. The assay is described as follows: cross-linking; intradimer crosslink of Sgt2 single cysteine variants with the thiol-specific homo-bifunctional crosslinker bismaleimidohexane (BMH).
The target of assay [9] is Bos1^Bpa, in vitro translated (Strep3-tagged, 35S-methionine). The assay is described as follows: pull-down + cross-linking; Bos1^Bpa translated in S30 extract in the presence of 2 µM His6-Sgt2 or Sgt2ΔN; pulldown on the strep3-tagged TA; UV crosslinking, autoradiography.
The target of the next assay is T1, Ssa1 (tagless) (yeast, UniProt P10591 1-642).
T1 construct: Ssa1, the major cytosolic Hsp70 in yeast; also called Hsp70; unlabeled Ssa1; source: recombinant His6-SUMO fusion, purified (Ni Sepharose, SUMO protease, MonoQ)
T1 sequence (P10591 whole entry, the tested form may be a part): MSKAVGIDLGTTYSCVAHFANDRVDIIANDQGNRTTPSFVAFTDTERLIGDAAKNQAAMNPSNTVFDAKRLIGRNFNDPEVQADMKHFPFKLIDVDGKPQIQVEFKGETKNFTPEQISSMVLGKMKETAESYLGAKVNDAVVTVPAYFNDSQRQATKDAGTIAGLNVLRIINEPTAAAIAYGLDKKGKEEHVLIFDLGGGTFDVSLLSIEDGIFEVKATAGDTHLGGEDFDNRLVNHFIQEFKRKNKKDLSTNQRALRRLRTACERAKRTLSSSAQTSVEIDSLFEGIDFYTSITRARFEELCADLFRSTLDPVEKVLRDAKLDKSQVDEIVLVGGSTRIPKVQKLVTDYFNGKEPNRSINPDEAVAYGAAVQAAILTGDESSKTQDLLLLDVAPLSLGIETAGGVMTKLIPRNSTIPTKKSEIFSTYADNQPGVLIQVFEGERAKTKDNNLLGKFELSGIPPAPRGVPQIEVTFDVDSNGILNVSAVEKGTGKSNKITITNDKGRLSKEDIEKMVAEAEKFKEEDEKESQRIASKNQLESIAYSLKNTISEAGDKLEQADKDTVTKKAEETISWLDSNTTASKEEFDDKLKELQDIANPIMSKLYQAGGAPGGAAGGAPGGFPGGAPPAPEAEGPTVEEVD
Description: pull-down; TA (0.3 µM) loaded on 3 µM Ssa1 with 2 mM ATP, with or without 3 µM Ydj1, then 0.6 µM His6-Sgt2; Talon resin, GET buffer (150 mM KOAc) with 5 mM imidazole wash. To be noted: both partners purified.

Another assay concerns the target T2, Ssa1 (yeast, UniProt P10591 1-642).
T2 construct: Ssa1, the major cytosolic Hsp70 of yeast; also called Hsp70; source: recombinant His6-SUMO fusion, purified (Ni Sepharose, SUMO protease, MonoQ)
The assay is described as follows: pull-down; 0.6 µM His6-Sgt2 added for 1 min to a preformed Ssa1-TA complex (0.3 µM TA, 3 µM Ssa1, 2 mM ATP, with or without 3 µM Ydj1) in GET buffer; captured on Talon resin at 4 °C, washed with GET buffer + 5 mM imidazole, eluted with 300 mM imidazole; silver stain and anti-Strep western blot. The settings on record: both partners purified.

Assay [10] concerns the target T3, His6-Sgt2 (wildtype Sgt2), Q12118.
T3 chain: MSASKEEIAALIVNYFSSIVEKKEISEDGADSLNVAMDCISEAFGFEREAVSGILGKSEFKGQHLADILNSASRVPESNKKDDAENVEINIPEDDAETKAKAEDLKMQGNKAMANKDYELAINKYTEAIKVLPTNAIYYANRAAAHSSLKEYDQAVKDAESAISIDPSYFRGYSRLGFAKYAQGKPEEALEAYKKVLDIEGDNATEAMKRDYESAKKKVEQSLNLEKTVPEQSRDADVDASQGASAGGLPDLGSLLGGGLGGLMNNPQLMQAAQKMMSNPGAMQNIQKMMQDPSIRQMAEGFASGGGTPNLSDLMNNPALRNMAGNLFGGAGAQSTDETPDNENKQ

T2 sequence (P10591 whole entry, the tested form may be a part): as the sequence (P10591 whole entry, the tested form may be a part) above

In turn, Bos1^BFL (BFL-labeled Bos1) returned a koff, slow phase (~50% of the fluorescence change) in assay [1] of 0.0005 s⁻¹.

Consider “Bos1^Bpa, in vitro translated (Strep3-tagged, 35S-methionine)”, for which the rate constant of loss of the TA crosslink to (Sgt2-C258)XL2 on transfer to Get3 with Get4/5 in assay [2] came to 3.5 min⁻¹. Besides, the apparent rate constant of TA loss from Sgt2 to CaM (20 µM CaM) in [3] came to 0.78 min⁻¹.

Usually koff stands for the first-order rate constant of dissociation. For the molecule “Bos1^CM (Strep-SUMO-Bos1 labelled with coumarin)”, the results for the koff in [4], in assay [5] and in [6] were 0.000283 to 0.000317 s⁻¹, 0.0003 s⁻¹ and 0.0003 s⁻¹, respectively. Besides, the apparent rate constant of Bos1 release from Sgt2 with 30 µM CaM in assay [6] is 0.91 min⁻¹.

In turn, “His6-Sgt2-G258C, not crosslinked (from UniProt Q12118 1-346) (natural protein)” gave a percent crosslinked by BMH (intradimer, in the complex with TA) in assay [7] of 50%. The BMH crosslinking efficiency (intradimer) in assay [8] came to 46%.

B1: His6-Sgt2 (wildtype Sgt2) (natural protein, UniProt Q12118 1-346, looked up)
chain: MSASKEEIAALIVNYFSSIVEKKEISEDGADSLNVAMDCISEAFGFEREAVSGILGKSEFKGQHLADILNSASRVPESNKKDDAENVEINIPEDDAETKAKAEDLKMQGNKAMANKDYELAINKYTEAIKVLPTNAIYYANRAAAHSSLKEYDQAVKDAESAISIDPSYFRGYSRLGFAKYAQGKPEEALEAYKKVLDIEGDNATEAMKRDYESAKKKVEQSLNLEKTVPEQSRDADVDASQGASAGGLPDLGSLLGGGLGGLMNNPQLMQAAQKMMSNPGAMQNIQKMMQDPSIRQMAEGFASGGGTPNLSDLMNNPALRNMAGNLFGGAGAQSTDETPDNENKQ
notes: Sgt2, cochaperone of the GET pathway; The functional rows were measured with Sgt2 doubly labelled with ATTO550/ATTO647N at the C-terminus (His6-Sgt2-LPATGG ligated to GGGC-dye by sortase A); also called Sgt2-WT; unlabeled Sgt2; source: cells lysed with BugBuster
As to B1, in assay [9], the percent of Bos1^Bpa crosslinked is above 43%. Further, the binding result with Ssa1 (tagless) is “binds”.

B2: His6-tagged wildtype Sgt2 (natural protein, S. cerevisiae (printed as ScSgt2), UniProt Q12118 1-346, looked up)
chain: MSASKEEIAALIVNYFSSIVEKKEISEDGADSLNVAMDCISEAFGFEREAVSGILGKSEFKGQHLADILNSASRVPESNKKDDAENVEINIPEDDAETKAKAEDLKMQGNKAMANKDYELAINKYTEAIKVLPTNAIYYANRAAAHSSLKEYDQAVKDAESAISIDPSYFRGYSRLGFAKYAQGKPEEALEAYKKVLDIEGDNATEAMKRDYESAKKKVEQSLNLEKTVPEQSRDADVDASQGASAGGLPDLGSLLGGGLGGLMNNPQLMQAAQKMMSNPGAMQNIQKMMQDPSIRQMAEGFASGGGTPNLSDLMNNPALRNMAGNLFGGAGAQSTDETPDNENKQ
notes: Sgt2 (ScSgt2); also called His6-Sgt2; His-Sgt2-WT
As for B2, the binding result with Ssa1 is on record as “binds”.

B3: His6-Sgt2ΔN (residues 96–346) (domain or fragment)
chain: AETKAKAEDLKMQGNKAMANKDYELAINKYTEAIKVLPTNAIYYANRAAAHSSLKEYDQAVKDAESAISIDPSYFRGYSRLGFAKYAQGKPEEALEAYKKVLDIEGDNATEAMKRDYESAKKKVEQSLNLEKTVPEQSRDADVDASQGASAGGLPDLGSLLGGGLGGLMNNPQLMQAAQKMMSNPGAMQNIQKMMQDPSIRQMAEGFASGGGTPNLSDLMNNPALRNMAGNLFGGAGAQSTDETPDNENKQ
Consider B3, for which the percent of Bos1^Bpa crosslinked in [9] is 6%.

Consider SEQTITSINKRVFKDKLVFWIALILLIIGIYYVLKWLR (modifications not checked) [Strep-SUMO-Bos1 (model TA substrate Bos1), unlabelled], for which the equilibrium of Sgt2 closing (K closing; µs-ALEX smFRET of doubly labelled Sgt2^ATTO550/ATTO647N, mpH2MM) in the purified Sgt2-TA complex; apo-Sgt2 0.221 in assay [10] amounted to 0.597.
